Measurements published in publication PMC9195047 (The Journal of Experimental Medicine, 2022).

Key:
[1] = target: CHIKV 181/25 structural proteins on infected Vero cells (Chikungunya virus, 181/25, UniProt Q88628, strain); assay: flow cytometry on cells
[2] = target: VEEV TC-83 structural proteins (capsid-p62-6K-E1) displayed on Expi293F cells (Venezuelan equine encephalitis virus, …, UniProt P05674, strain); assay: flow cytometry on cells

B1: hVEEV-63 (human anti-VEEV monoclonal antibody, IgG1) (antibody, V domains shown)
VH: QVQLVQSGAEVKKPGASVKVSCKSSGYTFTNYIIHWVRQAPGQRLEWMGWINAGNGNTKYSQKFQGRISVTRDTSASAAYMELSSLKSEDTALYYCATLQMDYGGNGDLDYWGQGTLVTVSS
VL: YELTQPPSVSVSPGQTARITCSGDALPKQYVYWYQQKPGQAPVLVIYKDSERPSGIPERFSGSSSGTTVTLTISGVQAEDDADYYCQAADSSNTEYVFGTGTKVTVL
binding result [1]: no binding (tested: 10 µg/ml) | binding result [2]: binds
